Test results as given in PMC3143262 (Journal of molecular biology, 2011).

B1: CD147 Ig0 wild-type (domain or fragment, human, UniProt P35613 22-138, looked up)
chain: AAGFVQAPLSQQRWVGGSVELHCEAVGSPVPEIQWWFEGQGPNDTCSQLWDGARLDRVHIHATYHQHAASTISIDTLVEEDTGTYECRASNDPDRNHLTRAPRVKWVRAQAVVLVLE
B2: CD147 Ig0 C67M (domain or fragment, human, UniProt P35613 22-138, looked up)
chain: AAGFVQAPLSQQRWVGGSVELHCEAVGSPVPEIQWWFEGQGPNDTMSQLWDGARLDRVHIHATYHQHAASTISIDTLVEEDTGTYECRASNDPDRNHLTRAPRVKWVRAQAVVLVLE
modifications: Selenomethionine labeled for the crystal structure
B3: CD147 Ig0 K126A (domain or fragment, human, UniProt P35613 22-138, looked up)
chain: AAGFVQAPLSQQRWVGGSVELHCEAVGSPVPEIQWWFEGQGPNDTCSQLWDGARLDRVHIHATYHQHAASTISIDTLVEEDTGTYECRASNDPDRNHLTRAPRVAWVRAQAVVLVLE

Molecular target: the molecule itself
Assay: SEC

Stoichiometry N, 2:
B1, B2, B3
